Source: patent publication US12018066 (TRIAD NATIONAL SECURITY, dated 2024)

B1: E01 rabbit minibody (scFv-rabbit Fc) (Fc fusion)
scFv-Fc: SYELTQPPSVSVAPGETARITCGGDNIGRRHVHWYQQKPGQAPVLVIYDDSDRPSGIPDRFSGSNSGNTATLTIGRVEAGDEADYYCQVWGSSNDPHVFGTGTKLTVLSGGSTITSNNVYYTKLSSSGTQVQLQQWGAGLLKPSETLSLKCAVYGGSFSGYYWGWIRQSTGKGLEWIGEINRSGSTNYNPSLKSRVTISVDTSKNQFSLKLSSVTAADTAVYYCARGGARYYYGSGSYRSTPRPYYFDYWGQGTLVTVSS
B2: R09 scFv (scFv)
scFv: QPGLTQPPSVSVSPGQTASITCSGDKLGYKYVSWYQQKPGQSPVLVIYEDTKRPSGIPKRFSGSNSGNTATLTICGTQAVDEADYYCQAWDSSVVFGGGTKLTVLSGGSTITSYNVYDTKLSSSGTQVQLVQSGAEVKKPGASVKVSCKASGYTFTSYGISWVRQAPGQGLEWMGWISAYNGNTNYAQKFQGRVTMTTDTSTSTAYMELRSLRSDDTAVYYCARDMELRPPFDYWGQGTLVTVSS
B3: F07 rabbit minibody (scFv-rabbit Fc) (Fc fusion)
chain: SYVLTQPPSVSVAPGQTARITCGGNNIGSKSVHWYQQKPGQAPVLVVYDDSDRPSGIPERFSGSNSGNTATLIISRVEAGDEADYYCQVWDSSSVHYVFGTGTKLTVLSGGSTITSYNVYYTKLSSSGTQVQLVQSGAEVKKPGSSVRVSCKVSGYTFTGYYMHWVRQAPGQGLEWMGIINPSGGSTSYAQKFQGRVTMTRDTSTSTVYMELSSLRSEDTAVYYCARVRVGASDAFDIWGQGTMVTVSS
B4: F07 human minibody (scFv-human Fc) (Fc fusion)
chain: B3 chain
B5: E07 scFv (scFv)
scFv: B3 chain
B6: R26 rabbit minibody (scFv-rabbit Fc) (Fc fusion)
scFv-Fc: SYELTQPPSVSVAPGQTATITCGGKNIESKSVHWYQQKPGQAPVLVVSDDTDRASGIPERFSGSNSGGAATLTISRVEAGDEADYYCQVWDSPSDHYVFGPGTKLTVLSGGSTITSYNVYYTKLSSSGTQVQLVESGGGVVQPGRSLRLSCAASGFTFSSYAMHWVRQAPGKGLEWVAVISYDGSNKYYADSVKGRFTISRDKAKNTLYLQMNSLRGEDTAVYYCARELSYYDSSGYLRGDWYFDLWGRGTLVTVSS
B7: S01 rabbit minibody (scFv-rabbit Fc) (Fc fusion)
chain: EIVMTQSPSSLSASVGDSVTITCQASQDISNYLNWYQQKPGKAPKLLIYDASNLETGVPSRFSGGGSGTDFTLTITSLQPEDIATYYCQQYDNFPPTFGPGTKVDIKSGGSTITSYNVYYTKLSSSDTQVQLVESGGGLVKPGGSLRLSCAASGFTVGSNYMSWVRQAPGKGLEWVSVIYSGGSTYYADSVKGRFTISRDNSKNTLYLQMNSLRAEDTAVYYCARGSSGAWYFDLWGRGTLVTVSS
B8: S01 human minibody (scFv-human Fc) (Fc fusion)
chain: B7 chain

Legend:
[1] = biological target: T1, SARS-CoV spike protein receptor binding domain (RBD1) (SARS-CoV, UniProt P59594 306-527); experiment: plate immunoassay on immobilized antigen, PE-labelled anti-rabbit/anti-human
[2] = biological target: SARS-CoV-2 spike protein receptor binding domain (RBD2) (SARS-CoV-2, UniProt P0DTC2 319-537); experiment: flow cytometry, yeast-expressed scFv
[3] = biological target: T1, SARS-CoV spike protein receptor binding …; experiment: ELISA, crude rabbit minibody

Binder | binding result [1] | further results
B1 | no binding | –
B2 | – | Kd [2]: 4.82 µM
B3 | no binding | –
B4 | no binding | –
B5 | – | Kd [2]: 0.436 µM
B6 | – | binding result [3]: no binding
B7 | no binding | –
B8 | no binding | –
